Measured values reported in the supplement of paper PMC10567573.
± gives the standard deviation.

Assay: protein stability index of a GFP-peptide fusion (GPS, HEK-293T) (PSI 1-6); higher = more stable
Settings: c terminus: a fixed tail appended
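Also: 24-mer peptide tiles fused after GFP, lentivirally expressed, FACS-sorted into six equal bins by GFP/DsRed ratio, decoded by Illumina sequencing, PSI is the read-weighted mean bin number.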

Sequence | protein stability index (treatment: DMSO) | protein stability index (treatment: MLN4924 1 uM, 8 h)
LSLLVMVISPVIQLQPTFTPMRVA [NSDHL] | 3.08 ± 0.32 | 3.23 ± 0.087
LSPALDLQAESPPVDPDSQADTVH [DNAAF3] | 5.48 ± 0.41 | 5.46 ± 0.21
LSRKVAELVHFLLLKYRAREPVTK [MAGEA3] | 2.97 ± 0.42 | 2.44 ± 0.43
LSVTISFRIYKSVIQAVQKSEEGH [RTN3] | 3.26 ± 0.61 | 3 ± 0.42
LTEASAHSHPPEIKDQGGAGEGLV [MAP2] | 5.57 ± 0.15 | 5.56 ± 0.2
LTKFLEEHPGGEEVLREQAGGDAT [CYB5A] | 5.44 ± 0.24 | 5.44 ± 0.26
LTLKVLRSSSCGDTELLGQATLPV [C2CD2L] | 2.16 ± 0.73 | 2.33 ± 0.34
LVDMDMADYSAALDPAYTTLEFEN [HNF4A] | 4.24 ± 0.19 | 4.35 ± 0.054
LVITDFFGHLINGAIAVFVYASDK [PTGFR] | 3.39 ± 0.23 | 3.56 ± 0.49
LVNDDDEEADDTRYTQGTGGDEVD [ZC3H15] | 5.43 ± 0.31 | 5.67 ± 0.23
LVPFVGKVHIGYLPNKQVLGLSKL [GCH1] | 2.78 ± 0.19 | 2.06 ± 0.37
LVVIQQPSLDSRQRLDYEREIQPT [SPRY1] | 2.96 ± 0.2 | 3.1 ± 0.11
LVYDVEVKSHLLDYVMTTLLFSDK [TRIP13] | 2.9 ± 0.45 | 2.92 ± 0.47
LWILHLLLECYIQYHHSKIRNRGY [TMEM192] | 2.61 ± 0.51 | 2.49 ± 0.32
LYAVGGQDGVSCLNIVERYDPKEN [KLHL20] | 3.89 ± 0.31 | 3.96 ± 0.27
LYILGNFMQLKCFSSQKLKCLSMF [PNLIPRP1] | 3.67 ± 0.66 | 3.46 ± 0.73
LYYYMTQTEELKYSIDQEFLKEYF [NLN] | 2.74 ± 0.85 | 2.39 ± 0.62
MCNVKAPLGSPSPRPRRAKRFASL [ADAMTS4] | 3.69 ± 0.26 | 3.77 ± 0.21
MDGESEEEQESVDTGEEEEGGDES [EHMT1] | 5.66 ± 0.15 | 5.51 ± 0.16
MDVSREEAPQWLESDSCQKCEQPF [WDFY1] | 4.89 ± 0.17 | 4.92 ± 0.32
MGGHHPGADYPVDGLPDLGHAQDL [CTNNB1] | 5.03 ± 0.25 | 5.03 ± 0.3
MGPAQEAPVAEAWIPQAGPPELNY [ZNF449] | 4.46 ± 0.27 | 4.51 ± 0.17

Sequence | protein stability index (treatment: DMSO) | protein stability index (treatment: MLN4924 1 uM, 8 h)
MHVACQHGQENIVRILLRRGVDVS [RIPK4] | 2.29 ± 0.32 | 2.24 ± 0.45
MLEKMDLKEFDLDALLGIDDLETM [ATF4] | 3.85 ± 0.14 | 3.87 ± 0.26
MLGLALGGLVVSAASLAGCLGALC [TSPAN10] | 3.15 ± 0.55 | 3.04 ± 0.37
MLIFSLALEEPEKMGLQERSETFL [DNAAF3] | 2.18 ± 0.32 | 2.38 ± 0.12
MMELGSRSRGASQKKQKLEQKAAG [FATE1] | 4.76 ± 0.19 | 4.87 ± 0.49
MNLHVYISEHEHFTDFNATSALFW [CLPTM1] | 2.94 ± 0.5 | 2.79 ± 0.39
MRPWTGSWRWIMLILFAWGTLLFY [FUT8] | 3.24 ± 0.16 | 3 ± 0.092
MVEADHPGKLFIGGLNRETNEKML [RBMY1A1] | 3.91 ± 0.23 | 3.92 ± 0.093
MVKIFRLLPTKSLVALKCTCCYFK [FBXO34] | 3.18 ± 0.48 | 2.71 ± 0.69
NALTLTFQRAMHDYNQAEMKQRDN [STX11] | 3.54 ± 0.15 | 3.68 ± 0.12
NCEQLCVNVPGSFVCQCYSGYALA [MATN2] | 2.16 ± 0.55 | 2.34 ± 0.53
NESTVCLMSYERRQILHLITMMAL [TENT5D] | 2.3 ± 0.47 | 2.1 ± 0.2
NFADEDEAQAFRALVQEKIQKRNQ [WAS] | 4.55 ± 0.29 | 4.62 ± 0.3
NFCEPQDYRPMNHEAFKDELKTFR [CDC25B] | 4.04 ± 0.085 | 4.15 ± 0.25
NFIREQDLYALKSVKIPVRNHGIL [LYSMD4] | 2.27 ± 0.076 | 2.35 ± 0.37
NFYYFSLIPKTWYSAEQFCVSRNS [CD207] | 2.6 ± 0.53 | 2.3 ± 0.45
NGLNARMMHGGSYSLTTSSTHKRS [RAB40B] | 4.28 ± 0.12 | 4.34 ± 0.19
NGPDCGYGSFHQQYWLDGKIIAVG [ATE1] | 2.35 ± 0.42 | 2.26 ± 0.26
NGVLLCFYSQEWYARQHCPLKNPT [SOAT1] | 2.81 ± 0.31 | 2.6 ± 0.57
NHLLHHFVIGHLKGAPASWWNHMH [FADS1] | 2.36 ± 0.56 | 2.31 ± 0.34
NIGDSSSGLIQTVFISSYMVLAPV [SPNS1] | 3.12 ± 0.32 | 2.67 ± 0.38
NKQGHGCESDIWALGCVMYTMLLG [PLK2] | 2.87 ± 0.58 | 2.54 ± 0.064

Sequence | protein stability index (treatment: DMSO) | protein stability index (treatment: MLN4924 1 uM, 8 h)
NLDEEMKKIRQVIRKYNYVAMDTE [CNOT7] | 3.47 ± 0.14 | 3.38 ± 0.22
NLFFAWIKIFKYISFNKTMTQLSS [PKD2L1] | 3.05 ± 0.49 | 2.99 ± 0.44
NPEEIRGGGLLKYSNLLVRDFRPT [TENT5C] | 3.04 ± 0.3 | 3.14 ± 0.31
NPFAKGFRENGRNCKRERDARVKR [TBX6] | 4.1 ± 0.24 | 4.09 ± 0.36
NPFYHCLVAEILPAPGKLLGPCVV [SAT2] | 3.16 ± 0.97 | 3.07 ± 1.2
NPQENRWHTIAPMGTRRKHLGCAV [KLHL20] | 3.1 ± 0.13 | 3.11 ± 0.095
NQKLFDLRGKFKRPPLRRVRMSAD [TNNI2] | 3.17 ± 0.21 | 3.51 ± 0.26
NQRAMDLYKALGAQDLTEAEGWHF [SAT2] | 3.28 ± 0.25 | 3.14 ± 0.28
NSAAHLFGYRPYDKNISPRENILV [SCD] | 2.22 ± 0.38 | 2.57 ± 0.26
NSFRLLFDVVVILTCSLSFLLCAR [MCOLN1] | 3.21 ± 0.17 | 3.24 ± 0.24
NTGYRLQNNENNISCVERGWSTPP [CFHR2] | 3.67 ± 0.19 | 3.66 ± 0.22
NTLVCNGLQNCVYPWDENHCKEKR [NETO1] | 4.21 ± 0.25 | 4.26 ± 0.3
NTNPKEVQEMRNKIREQNLQDIKT [ADD1] | 4.98 ± 0.18 | 5.11 ± 0.13
NVGGALYYTTMQTLTKQDTMLKAM [KCTD10] | 2.6 ± 0.35 | 2.38 ± 0.54
NVKTLKDGKPFPELVLEQQLDREA [PCDHGC5] | 5.07 ± 0.33 | 5.02 ± 0.13
NVNSNLITWNRVVLLHGPPGTGKT [TRIP13] | 2.45 ± 0.21 | 2.53 ± 0.14
NWKETLVFPPEVPISEKAKDLILR [STK38L] | 2.81 ± 0.43 | 3.28 ± 0.29
NWWIRGILTLTMISLFFLIIYMGS [CDS1] | 2.54 ± 0.16 | 2.55 ± 0.35
NYIGTKNVIETCKEAGVQKLILTS [NSDHL] | 2.5 ± 0.23 | 2.84 ± 0.44
NYLVRLSFHNLKFDCSTANKIFLR [ZNF277] | 2.46 ± 0.4 | 2.55 ± 0.25
NYMNAAMVHINRALKLIIRLFLVE [RTN3] | 2.24 ± 0.21 | 2.27 ± 0.26
